Biological target: NKG2A (human) (UniProt P26715)
Assay: flow cytometry on primary NK cells, 0 µM mabkine control of the competition assay

Chain of UniProt P26715 (P26715 whole entry): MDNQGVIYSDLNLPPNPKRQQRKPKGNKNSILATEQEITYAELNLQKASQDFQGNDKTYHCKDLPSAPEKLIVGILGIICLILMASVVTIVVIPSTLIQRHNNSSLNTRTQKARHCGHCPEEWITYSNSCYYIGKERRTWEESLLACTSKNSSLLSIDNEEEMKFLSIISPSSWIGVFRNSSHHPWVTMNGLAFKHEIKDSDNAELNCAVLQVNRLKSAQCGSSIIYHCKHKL

% of CD56+ cells stained (without mabkine): 26.5%
Substance: anti-NKG2A (S19004C) from Biolegend (antibody)

Reference: US20260242467A1
